Paper PMC6200766, “Fisetin targets YB-1/RSK axis independent of its effect on ERK signaling: insights from in vitro and in vivo melanoma models” (Scientific Reports, 2018)

How the values were obtained:
Conditions in all cases: both partners purified
[1] = target: T1, RPS6KA1 (RSK1, 88.5 kDa) recombinant human protein, full length, HIS-tag (human, UniProt Q15418 1-735); experiment: SPR; Biacore T-200, 25 °C; GST-YB-1 (51-139), 60 RU, amine-coupled on a CM5 chip; RSK1 or RSK2 flowed at 100-0 nM without BSA, 30 ul/min; full kinetics; KD from ka and kd or steady state
T1 construct: p90 ribosomal S6 kinase 1 (RSK1, RPS6KA1), human, full length, 88.5 kDa; source: bought: Life Technologies, Italy

[2] = target: T2, RPS6KA3 (RSK2, 86.3 kDa) recombinant human protein, full length, HIS-tag (human, UniProt P51812 1-740); experiment: as above
T2 construct: p90 ribosomal S6 kinase 2 (RSK2, RPS6KA3), human, full length, 86.3 kDa; source: bought: Life Technologies, Italy

[3] = target: T2, RPS6KA3 (RSK2, 86.3 kDa) recombinant …; experiment: SPR; Biacore T-200, 25 °C; GST-YB-1 (51-139) amine-coupled on a CM5 chip; RSK2 flowed at 50, 25, 12.5, 6.25, 3.125, 0 nM, 30 ul/min; 10 mM HEPES pH 7.4, 150 mM NaCl, 3 mM EDTA, 0.05% P20, 0.1% BSA; full kinetics

T2 sequence (P51812 whole entry): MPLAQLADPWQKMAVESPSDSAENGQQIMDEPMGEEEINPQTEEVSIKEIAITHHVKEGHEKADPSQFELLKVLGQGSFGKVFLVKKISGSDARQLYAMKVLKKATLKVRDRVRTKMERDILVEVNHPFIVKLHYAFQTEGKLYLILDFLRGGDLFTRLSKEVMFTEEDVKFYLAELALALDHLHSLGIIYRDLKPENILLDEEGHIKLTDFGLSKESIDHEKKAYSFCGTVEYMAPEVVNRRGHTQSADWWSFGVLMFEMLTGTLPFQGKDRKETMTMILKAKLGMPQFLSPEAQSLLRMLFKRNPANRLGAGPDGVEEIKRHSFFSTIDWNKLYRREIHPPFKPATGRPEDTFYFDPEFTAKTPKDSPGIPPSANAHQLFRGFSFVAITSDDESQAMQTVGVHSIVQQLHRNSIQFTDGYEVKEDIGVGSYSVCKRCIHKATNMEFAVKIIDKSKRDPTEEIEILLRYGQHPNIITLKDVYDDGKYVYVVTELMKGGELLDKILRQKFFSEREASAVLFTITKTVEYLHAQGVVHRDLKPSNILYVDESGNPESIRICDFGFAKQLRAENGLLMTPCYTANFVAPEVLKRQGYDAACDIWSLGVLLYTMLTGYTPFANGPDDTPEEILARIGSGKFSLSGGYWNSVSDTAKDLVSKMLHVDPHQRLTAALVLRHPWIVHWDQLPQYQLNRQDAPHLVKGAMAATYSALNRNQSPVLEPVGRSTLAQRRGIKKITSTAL
T1 sequence (Q15418 whole entry): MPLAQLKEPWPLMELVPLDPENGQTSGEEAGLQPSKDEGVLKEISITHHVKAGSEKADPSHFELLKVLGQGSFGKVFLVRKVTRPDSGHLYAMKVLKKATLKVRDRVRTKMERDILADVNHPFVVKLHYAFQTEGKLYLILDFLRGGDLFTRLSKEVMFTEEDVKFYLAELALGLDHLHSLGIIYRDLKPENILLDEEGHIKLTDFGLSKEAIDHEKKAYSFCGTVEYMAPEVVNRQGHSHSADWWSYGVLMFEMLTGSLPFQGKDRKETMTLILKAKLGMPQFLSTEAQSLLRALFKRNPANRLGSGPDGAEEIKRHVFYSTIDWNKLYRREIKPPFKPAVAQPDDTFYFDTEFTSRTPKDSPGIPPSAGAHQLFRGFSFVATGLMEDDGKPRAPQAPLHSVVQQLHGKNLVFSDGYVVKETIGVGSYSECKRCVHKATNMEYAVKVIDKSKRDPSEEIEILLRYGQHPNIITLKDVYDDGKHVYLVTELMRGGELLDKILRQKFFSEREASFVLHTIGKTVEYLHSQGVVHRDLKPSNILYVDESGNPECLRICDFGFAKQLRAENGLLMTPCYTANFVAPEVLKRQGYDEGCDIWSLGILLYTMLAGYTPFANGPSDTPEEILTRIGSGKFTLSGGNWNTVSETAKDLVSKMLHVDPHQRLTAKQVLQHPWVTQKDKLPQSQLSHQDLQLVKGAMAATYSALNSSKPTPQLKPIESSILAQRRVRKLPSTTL

Kd [1]: 246000 nM
Kd [2]: 534 nM
Kd [3]: 402 nM
B1: YB-1 human recombinant protein with GST-tag at N-terminal (51-139 aa) (domain or fragment)
chain: not shown
notes: 35 kDa including GST tag; Immobilised by amine coupling (EDC/NHS) on a CM5 chip with its GST tag; source: bought: Abnova Corporation, Taiwan; not shown: GST, N-terminal, kept
